Measurements from the DeepSol protein solubility set.

assay: soluble on expression in E. coli; label from the status in PepcDB or PDB records

| Sequence | soluble on expression in E. coli |
| --- | --- |
| MKIALINENSQASKNHIIYDSLKEATDKKGYQLFNYGMRGEEGESQLTYVQNGLMAAILLNTKAVDFVVTGCGTGVGAMLALNSFPGVVCGLAVDPTDAYLYSQINGGNALSIPYAKGFGWGAELTLKLMFERLFAEEMGGGYPRERVIPEQRNARILNEVKQITHNDLMTILKIIDQDFLKDTISGKYFQEYFFENCQDDEVAAYLKEVLAK | soluble |
| MKIDASRRGILTGCWRKASNGIRPPWSGDESHFLTHCTRCDACINACENNILQRGTGGYPSVNFKNNECSFCYACAQACPESLFSPRHTRAWDLQFTIGDACLAYQSVECRRCQDSCEPMAIIFRPTLSGIYQAQLNSQLCNGCGACAASCPVSAITAEYLHAH | not soluble |
| MKIDITDYNHADEILNPQLWKEIEETLLKMPLHVKASDQASKVGSLIFDPVGTNQYIKDELVPKHWKNNIPIPKRFDFLGTDIDFGKRDTLVEVQFSNYPFLLNNTVRSELFHKSNMDIDEEGMKVAIIITKGHMFPASNSSLYYEQAQNQLNSLAEYNVFDVPIRLVGLIEDFETDIDIVSTTYADKRYSRTITKRDTVKGKVIDTNTPNTRRRKRGTIVTY | soluble |
| MKIDYLTLFPEMFDGVLNHSIMKRAQENNKLQINTVNFRDYAINKHNQVDDYPYGGGQGMVLKPEPVFNAMEDLDVTEQTRVILMCPQGEPFSHQKAVELSKADHIVFICGHYEGYDERIRTHLVTDEISMGDYVLTGGELPAMTMTDAIVRLIPGVLGNEQSHQDDSFSDGLLEFPQYTRPREFKGLTVPDVLLSGNHANIDAWRHEQKLIRTYNKRPDLIEKYPLTNEDKQILERYKIGLKKG | not soluble |
| MKIEVWSDFVCPFCYMGKRRLEIALNEFEYKTDVEISFKSFELDPSAKKEYSENIHELIAKKYKISVEQAKASNDQIVLQAEAIGLNYNFNKLIPTNTFDAHRLSQYAKTKGKMNELSEKIFKAYFVDSLNISDYKVLADLAEEVGISRDESLRILESNQYNEEVREDEKNASKLGIDAVPYFVFDDKYAVSGAQPAEVFLEALYKIDKE | not soluble |
| MKIFFITSNPGKVREVANFLGTFGIEIVQLKHEYPEIQAEKLEDVVDFGISWLKGKVPQPFMIEDSGLFIESLKGFPGVYSSYVYRTIGLEGILKLMEGAEDRRAYFKSVIGFYIDGKAYKFSGVTWGRISNEKRGTHGFGYDPIFIPEGSEKTFAEMTIEEKNALSHRGKALKAFFEWLKVNLKY | soluble |
| MKIGIIGAGFVARAIAKLALQNGHQVMLSNSRDPQSLFSLRPMIGCDIGTATQAALFGDIIVIAVPFTAIDKLPEQALQGKSVIDAVNYYTERDGKVAALDTRSTTTSELLAGYLPGAKITKAFNAITMTQLERDGLPAGSAHRRALPLAGDHEQEKTIVAELYDAFGFDVVDAGKLSEGWRFERNMPSYCVRMTKAELTTALALSSRLEHHHHHH | soluble |
| MKIIITGEPGVGKTTLVKKIVERLGKRAIGFWTEEVRDPETKKRTGFRIITTEGKKKIFSSKFFTSKKLVGSYGVNVQYFEELAIPILERAYREAKKDRRKVIIIDEIGKMELFSKKFRDLVRQIMHDPNVNVVATIPIRDVHPLVKEIRRLPGAVLIELTPENRDVILEDILSLLER | soluble |
| MKIINLQFPNKYSAKKKEFVLAMGYFDGLHLGHRAVIQQAKRIADKQHLKLALLTYSQSPAGFYVNDPVLKVPILPFRQKMQMLEKLGVDTIFLIDYNLTFGSQSPEDYVDNYLAKLGASVVVAGFDHTYGSLKDKADMKHLPRYANGRFEVYTVRECSDYFGKISSTRIRRLLSEGDLQAVNELLGYQFQTVGFVVHGNQIGRRIGFPTANQALEEKQLLPKSGVYAVRTKIVTGPLAGRSFNGMASIGRNETFGSDNPITIEINLFDFSADVYDEEIIVYWISFLREQVKYANAEALIDQLKQDRIDSLDLLKEIPKSKNYS | not soluble |
| MKIKLEHGAGGELMEELIRDVILKNLTLNSAGGIGLEALDDGATIPFEGKHLVFTIDGHTVRPLFFPGGDIGRLAVSGTVNDLAVMGAKPLALASSLIIGEGFDSDKLEEILKSMNRTAKEVPVPIITGDTKVVEDNIEIFVITAGIGIAEKPISDAGAKVGDLVLVNGTIGDHGIALMSHREGISFETELKSDVAPIWDVVKTVADAIGWENIHAMKDPTRGGLSNALNEMARKADVGILVRESDIPIRPEVKAAGDMLGISPYDVANEGKVIMVVDREYAEDALEAMRKTEKGKDAAIIGEIIKDYPGKVILETGIGGRRFLEPPIGDPVPRVC | soluble |
| MKIMAICGSGLGSSFMVEMNIKKVLKKLNIDAEVEHSDLSSATPGAADLFVMAKDIAASASVPESQLVVINNIIDINELETQLRAWFAKQ | not soluble |
| MKINIRDSTMVRPATETPITNLWNSNVDLVIPRFHTPSVYFYRPTGASNFFDPQVMKEALSKALVPFYPMAGRLKRDDDGRIEIDCNGAGVLFVVADTPSVIDDFGDFAPTLNLRQLIPEVDHSAGIHSFPLLVLQVTFFKCGGASLGVGMQHHAADGFSGLHFINTWSDMARGLDLTIPPFIDRTLLRARDPPQPAFHHVEYQPAPSMKIPLDPSKSGPENTTVSIFKLTRDQLVALKAKSKEDGNTVSYSSYEMLAGHVWRSVGKARGLPNDQETKLYIATDGRSRLRPQLPPGYFGNVIFTATPLAVAGDLLSKPTWYAAGQIHDFLVRMDDNYLRSALDYLEMQPDLSALVRGAHTYKCPNLGITSWVRLPIYDADFGWGRPIFMGPGGIPYEGLSFVLPSPTNDGSLSVAIALQSEHMKLFEKFLFEI | soluble |
| MKINYQELANNIKLWAKELGFQKVGICDVDLSQHEAALEQWLEAGYHGSMDWMARHGVMRARPDELHPGTIRVISARMDYLPPKAGFASNLKDPNQAYISRYALGRDYHKLIRNQLKKLGQKIEEEVEQLGYRPFVDSAPILERPLAEKAGLGWTGKHSLLLDKNAGSWFFLGELLVDIPLPVDTPVENQCGKCTACISSCPTNAILENGVIDARRCISYLTIENSGIIPEEFRSLMGNRIYGCDDCQLVCPWNREAEITQQADFHRRSSLGNSDLISLFSWDESTFLKNMEGSAIRRIGHIQWLRNLSIAMGNAPHSEAIISALQDRLGLDENLDIHIQWAIKQQSLVITSNRKEQRLIRIIEKGLPRDA | not soluble |
| MKIQLHKWPKSVIDRLDLVFLDAPFPCQGKSDVEGIFDPPYYEWFQFNKEFTEYTNFEKCLEYLEDRMIKLGPFDGLIGFSQGAILSGGLPGLQAKGIAFQKVPKIKFVIIIGGAKLKSAKLAENAYSSSLETLSLHFLGETDFLKPYGTQLIESYKNPVVVHHPKGHTVPRLDEKSLEKVTAFIDTLEHLVMEEDKNGEENTSKPTK | soluble |
| MKIRALLLALGMATVLTGCQNMDSNGLLSSGAEAFQAYTLSDAQVKALSDQSCQELDSKAKIAPASSEYTKRLAKIAAALGDNINGQPVNYKVYETKDVNAFAMANGCIRVYSGLMDMMTDNEVEAVIGHEMGHVALGHVKKGMQVALGTNAVRVAAASAGGVVGSLSQSQLGDLGEKLVNSQFSQRQESEADDYSYDLLRKRGISPAGLATSFEKLAKLEAGRQSSMFDDHPASAARAQHVRDRMSADGIKLEHHHHHH | soluble |
| MKISLVTVTFNSAKTLCDTIHSVLSQSYTNIEYIIVDGLSNDETVTLIKEYEPLFQGRLKWISEKDKGLYDAMNKGIRMSTGDIVGIINSDDFYHRGDVLEKVAESFEAGETEAIYGDVRFVNPDNLDRTVRYYSSKRFVPSLFRFGFMPAHPTFFTYRKYFDQFGYYKTNYKIAADYELLVRFLYVHRLKSKYLPLDFMKMRTGGASTASIKSNILLNKEIVRACKENGIWTCYPLLLLKYLVKVFELIFIKKLEHHHHHH | soluble |
| MKISTKGRYGLTIMIELAKKYGDRPISLRSIAKANNLSEHYLEQLVTPLRNAGLVKSIRGAYGGYVLAEHPAKITAGDILRVLEGPLTPVEELEEEEPAKRELWIRIRDAVEEVLDSTTLEDLAKYSDGDEGAYMFYI | not soluble |
| MKKFDVAIVGGGLAGLTASIYLAKAGRKVIVLEKSSRFGGRGMTINKNGICMNLGAHALYRGGAAFLTFNELGMNLPGGIPSTKAHGIWKGDIFTIPTDFRSILSTPLLSWSAKVQFSRLMILLGNLDVGEVPKMSLTTWAEHEIKDPMVRNIFYALCRTTTYTFAPTIQLASSVLKQIQLSIKEGVFYVDGGWETIITKLRDIANHVGVQFLSKKHVLEIEHYEDKQRIYCFDDEVFEVGTVIVTTPPKEACNIIKGAEGTSLQRWSEQSIPVTVTALDIGLRRLPNPTHQFALGLDQPIFFTNQSRAAKLSDDGSIAVSLIKYQNPALEMKHIHEDKGQLESTMDLLHPNWKREVVAQQYLPTIKVVYDFPHINRVETPGPNIPEMPGVYVAGDWAGHDEILADAAVASGKRAALHILKQLESEAVHHGNGAIILEHHHHHH | not soluble |
| MKKIAIIGGGIIGMTLANYLDPQKFDITVYDEGLGQATKASAGIISPWLSKRRNKKWYQLAREGAALFPKLVKDFQLTEDIYRQSGTVILRPAAALADLAHLAEERKQTAPEIGEITMLSAVQTAKFLPLLKETPSLFISGGGRLDGPAYLNHLQKRAEAKGVTFCSQRAHFRQLNQGWEIVTNSEKKSVDFLALTPGPHLKELLTTLNLSVDIRPQKGQLLVFETPFTNSQQWPVAMLDGEADLIPFNQGKILLGATHENEQAWDLEETVSAFQQLTSGTAPFLKEAEQLFKQPMHYRVGTRAYTSDFAPFFGPLPEMPHLVVASGLGSSGLTTGPFIGYQLAEYFNTGAFKGELYQKPLSQYVKNNPSL | not soluble |
| MKKIAIIGGGIIGMTLANYLDPQKFDITVYDEGLGQATKASAGIISPWLSKRRNKKWYQLAREGAALFPKLVKDFQLTEDIYRQSGTVILRPAAALADLAHLAEERKQTAPEIGEITMLSAVQTAKFLPLLKETPSLFISGGGRLDGPAYLNHLQKRAEAKGVTFCSQRAHFRQLNQGWEIVTNSEKKSVDFLALTPGPHLKELLTTLNLSVDIRPQKGQLLVFETPFTNSQQWPVAMLDGEADLIPFNQGKILLGATHENEQAWDLEETVSAFQQLTSGTAPFLKEAEQLFKQPMHYRVGTRAYTSDFAPFFGPLPEMPHLVVASGLGSSGLTTGPFIGYQLAEYFNTGAFKGELYQKPLSQYVKNNPSLLEHHHHHH | soluble |
| MKKIEVDLVRTKVYNLLKEMILNHELKLGEKLNVRELSEKLGISFTPVRDALLQLATEGLVKVVPRVGFFVTDVDEKFIRETIETRIMMEVFCLENYFDKIAGSEELLEIKGEIDDVEKSAKREIFDDSDERLHKLFIRASGNELIISLYEKIWDRIDLVRHLNERYVVSNREHKELIERIISGDKEGAIEKLKEHLKNVEAETIKNLYTYERS | soluble |
| MKKILFDVDGVFLSEERCFDVSALTVYELLMDKCYLGLHSHIDWETLTDNDIQDIRNRIFQKDKILNKLKSLGLNSNWDMLFIVFSIHLIDILKKLSHDEIEAFMYQDEPVELKLQNISTNLADCFNLNEQLPLQFLDNVKVGKNNIYAALEEFATTELHVSDATLFSLKGALWTLAQEVYQEWYLGSKLYEDVEKKIARTTFKTGYIYQEIILRPVDEVKVLLNDLKGAGFELGIATGRPYTETVVPFENLGLLPYFEADFIATASDVLEAENMYPQARPLGKPNPFSYIAALYGNNRDKYESYINKQDNIVNKDDVFIVGDSLADLLSAQKIGATFIGTLTGLKGKDAAGELEAHHADYVINHLGELRGVLDNLLEHHHHHH | soluble |
| MKKILILLTLCAFAFGASECDRKIDRINKEISFSKAHNDTARTLSLELALKQVQNDCAKDPMFYDKKLEAKKLKEQEVEKIEKELDALKEQKDYMSKAEYKAKKEALKEQKEKIKKLEHHHHHH | not soluble |
